The values that follow come from patent US8703698B2, “Compositions and methods for treating atherosclerosis” (The University of Chicago, priority 2003, dated 2014).

Data set [1] relates to J774 macrophages. In words: Cholesterol efflux from cholesterol-laden J774 macrophages to apolipoprotein liposomes with 8-bromo-cAMP or methyl-β-cyclodextrin. In kind it is cell-based, mouse. From the text:
The export process of cholesterol is coupled to the ATP binding cassette transporter (ABCA1) pathway. Lipid efflux to apolipoproteins has been shown previously to be stimulated by treatment of murine macrophages with cAMP analogues (Lin et al. 2002 Biochem Biophys Res. Commun. 290:663-669; Oram et al. 2000 J. Biol. Chem. 275:34508-34511). Also, the expression of ABCA1 is induced by cAMP treatment (Lin et al. 2002 Biochem Biophys Res. Commun. 290:663-669; Oram et al. 2000 J. Biol. Chem. 275:34508-34511). The inventors herein examined the effect of 8-bromo-cAMP (0.3 mM) on cholesterol efflux by liposomes containing various apolipoproteins when incubated with cholesterol-laden J774 macrophages. Such cells were pre-labeled with [^3H]-cholesterol in the presence of Sandoz 58-035, an ACAT inhibitor, to ensure that all of the radiolabeled cholesterol released from the cells was derived from the un-esterified cholesterol pool, and the cells were treated for 12 hours with 8-bromo-cAMP. This was followed by incubation with various acceptors. The fractional release of cellular labeled cholesterol was determined as a function of time.
To investigate whether an apolipoprotein free cholesterol acceptor such as cyclodextrin has the ability to catalyze the removal of cholesterol from macrophages, cholesterol-loaded and labeled J774 cells were incubated with liposomes and methyl-β-cyclodextrin (0.1 mM) (CD).
To examine whether cholesterol export from J774 cells to medium containing liposomes containing 2 μM murine apoA-1, SAA1.1 or SAA2.1 is a cAMP-dependent process, the radio-labeled cholesterol-laden cells were incubated overnight with 8-Br-cAMP (0.3 mM), prior to the addition of liposomes containing 2 μM murine apoA-1, SAA1.1 or SAA2.1 to the culture medium. Cholesterol efflux to the medium was then determined at the indicated time points as described above. Efflux of radioactive label to the medium was calculated as a percentage of total counts in each well.

Data set [2] has as its target T1, acyl CoA:cholesterol acyl transferase (Mus musculus, UniProt Q61263).
T1 construct: host or cells: J774 mouse macrophages, cholesterol-loaded
T1 sequence (Q61263 1-540): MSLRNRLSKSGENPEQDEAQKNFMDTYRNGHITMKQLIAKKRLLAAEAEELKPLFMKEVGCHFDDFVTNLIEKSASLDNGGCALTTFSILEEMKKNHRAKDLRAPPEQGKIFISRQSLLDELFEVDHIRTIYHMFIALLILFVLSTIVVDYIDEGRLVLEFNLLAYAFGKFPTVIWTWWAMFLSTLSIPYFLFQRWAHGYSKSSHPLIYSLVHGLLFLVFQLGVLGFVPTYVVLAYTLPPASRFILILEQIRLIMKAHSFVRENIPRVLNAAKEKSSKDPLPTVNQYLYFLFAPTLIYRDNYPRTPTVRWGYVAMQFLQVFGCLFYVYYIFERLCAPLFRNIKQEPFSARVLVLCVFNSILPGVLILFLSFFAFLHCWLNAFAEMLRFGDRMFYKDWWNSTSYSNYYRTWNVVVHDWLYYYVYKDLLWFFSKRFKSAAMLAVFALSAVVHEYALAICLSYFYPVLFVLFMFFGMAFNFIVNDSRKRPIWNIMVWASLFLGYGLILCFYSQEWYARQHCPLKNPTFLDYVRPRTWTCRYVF
The experiment in a line: ACAT activity in macrophage post-nuclear homogenates. As to conditions: macrophage post-nuclear homogenates as enzyme source. It counts as biochemical, murine. From the text:
The in vitro effects of acute phase-HDL (AP-HDL;HDL-SAA) on acyl CoA:cholesterol acyl transferase and cholesterol ester hydrolase activities and on cellular cholesterol export were studied by the inventors using purified enzymes, cell homogenates, and whole cells. […] In contrast, murine SAA1.1 and apoA-1 had no effect. […] Using macrophages preloaded with radio-labeled cholesterol and injected intravenously into either inflamed or un-inflamed mice, it was shown that the inflamed mice, which have high SAA2.1 levels, effluxed cholesterol more rapidly and to a greater extent (6-fold greater) than their un-inflamed counterparts.

Data set [3] concerns the target T1, acyl CoA:cholesterol acyl transferase. As to conditions: intact murine macrophages and post-nuclear homogenates; Ely et al. 2001; cited from earlier work.

B1: GFFSFVHEAFQGAGDMWRAYTDMKEANWKNSDKYFHARGNYDAAQRGPGGVWAAEKISD GREAFQEFFGRGHEDTIADQEANRHGRSGKDPNYYRPPGLPDKY (protein, listed as Mus musculis)
chain: GFFSFVHEAFQGAGDMWRAYTDMKEANWKNSDKYFHARGNYDAAQRGPGGVWAAEKISDGREAFQEFFGRGHEDTIADQEANRHGRSGKDPNYYRPPGLPDKY
notes: full length murine serum amyloid A isoform 2.1 purified from acute phase plasma
On to B1, for which, in data set [1] (8-bromo-cAMP 0.3 mM, 12 hours, Sandoz 58-035 present), the “increase in the initial rate of cholesterol efflux to liposomes after cAMP pre-treatment versus untreated cells” value is 62.1%. The “further increase in cholesterol efflux by cAMP pre-treatment” value in data set [1] (cells exposed to liposomes and CD) stood at 45.5%. In addition, the “increase in the initial rate of cholesterol efflux with CD treatment” value in data set [1] (methyl-β-cyclodextrin 0.1 mM plus liposomes) is 4 fold. Besides, the “acyl CoA:cholesterol acyl transferase activity” value in data set [2] was “inhibit acyl CoA:cholesterol acyl transferase activity in a dose-dependent manner”. Besides, the “macrophage ACAT activity” value in data set [3] is reported as “inhibit macrophage acyl CoA:cholesterol acyl transferase (ACAT) activity”.
